Assays:
[1] = Stability analyses (RNase A, 10% FBS DMEM, 8 M urea) by native PAGE; assay type: in vitro ADME; conditions: 37° C.
Source text: FIG. 1A) The scheme of the pRNA-HER2apt-siMED1 (p-HER2-siMED1) (SEQ ID NO: 15) structure. FIG. 1B) The p1 and p2 strands of pRNA-HER2apt-siMED1_were transcribed using an in vitro RNA transcription system and separated in 8% denatured PAGE gel. FIG. 1C) pRNA-HER2apt-siMED1 nanoparticles were generated by annealing equal molar of strands p1 and p2, and subjected to 8% native PAGE gel electrophoresis. FIG. 1D) DLS assay of hydrodynamic size of pRNA-HER2apt-siMED1 nanoparticle. FIG. 1E) The Tm value of pRNA-HER2apt-siMED1 nanoparticle determined by TGGE assay. FIG. 1F) The atomic force microscopy (AFM) images of pRNA-HER2apt-siMED1 nanoparticles. FIG. 1G) The stability of control unmodified and 2′-F modified pRNA nanoparticles was examined by 8% native PAGE gel electrophoresis after RNase A, 10% FBS-supplemented DMEM medium and 8M urea treatments for the indicated time at 37° C.
Cell culture. Human breast cancer luciferase-overexpressing BT474 and MDA-MB-231 cells were maintained in DMEM medium (Hyclone, Thermo Scientific) supplemented with 10% fetal bovine serum (FBS, Sigma) and 1% penicillin/streptomycin (Corning) at 37° C. in a humidified atmosphere with 5% CO2.^53 • Generation of pRNA nanoparticles. The two strands of pRNA were synthesized with the DNA templates, which were amplified with overlapping primers (Sigma) by PCR methods, using a T7 promoter-controlled in vitro RNA transcription system as previously described^33 (Table 1). All the CTP and UTP used for synthesis of the pRNA nanoparticles were 2′-fluoro modified, except the control unmodified pRNA nanoparticles used in the stability assays. […] The hydrodynamic diameter and Tm value of pRNA nanoparticles were determined using dynamic light scattering and TGGE assay, respectively, as previously described.^54 The AFM imaging of the pRNA nanoparticles was performed at the University of Nebraska Medical Center imaging facility as previously reported.^55 Briefly, the pRNA nanoparticles (5 μL) were deposited on APS modified mica ^56 for a total of 2 min of incubation time. […]

MED1 = MED1 protein level by western blots in MCF-7/TAM cells; assay type: cell-based, human; conditions: 10 μg/mL, 48 h
Protocol: FIGS. 10A-10D. Evidence that pRNA-HER2apt-siMED1 nanoparticles silenced MED1 expression and sensitized two other HER2+ breast cancer cells to tamoxifen treatment. FIG. 10A) Two HER2-overexpressing breast cancer cell lines MCF7/TAM and FIG. 10B) MCF7/HER2, were treated with 10 μg/mL pRNA-HER2apt-siMED1 nanoparticles or scramble control for 48 h, and then MED1 protein level was determined using western blots. FIG. 10C) MCF7/TAM and FIG. 10D) MCF7/HER2 cells were treated with 10 μg/mL pRNA nanoparticles and/or 1 μM tamoxifen (TAM) as indicated for 48 h, and then cell growth was determined using an MTT assay.
Next, the ability of pRNA-HER2apt-siMED1 nanoparticles to silence the expression of MED1 in BT474 and MDA-MB-231 human breast cancer cells was examined. Using real-time PCR analyses, a significant depletion of nearly 70% of MED1 mRNA in BT474 cells after pRNA-HER2apt-siMED1 but not pRNA-HER2apt^mut-siMED1 treatment was found (FIG. 3A).

B1: pRNA-HER2apt-siMED1: 3-WJ pRNA nanoparticle bearing a HER2-targeting RNA aptamer and two different MED1 siRNAs; strands p1 SEQ ID NO: 3, p2 SEQ ID NO: 4 (nucleic acid)
chain 1: GGACAGUGAAAGUGAGUCAAAGGAUCAAUCAUGGCCAAAGAUGUUACUUUGAGAGCCUU
chain 2: GGCUCUCAAAGUAACAUCUAAGGCCAUGUGUAUGUGGGGGGAGGACGAUGCGGUCUGCUGUGCUUGAUAUGCCCCAGACGACUCGCCCCCCACAUACUUUGUUGAUCCAAUGACUCACUUUCACUGUCCUU
modifications: 2'-F modification; third strand may lack entry; pRNA-HER2apt-siMED1, p1; pRNA-HER2apt-siMED1, p2
resistance to RNase A treatment ([1]; 10 μg/mL RNase A): resistant
structure in 8M urea ([1]; 8M urea): maintained their structure
stability in 10% FBS-supplemented DMEM medium [1]: highly stable
MED1 silencing (MED1): confirmed
